Data: patent US20250236667A1, “ANTIBODIES TO MUTANT CALRETICULIN AND USES THEREOF” (CENTRAL ADELAIDE LOCAL HEALTH NETWORK INC, priority 2021, published 2025)

Columns and labels:
Type in all cases: cell-based, human
[1] = test system: phospho-STAT1,3,5 and phospho-ERK in TF-1 TpoR CALR^del52 cells; assay: Western blot of STAT/ERK signalling; details: 10 or 20 μg/mL; 8 hours
Procedure: (§1) A. Cell extracts blotted for phospho-STAT5, total STAT5, phospho-ERK, total ERK and actin from TF-1 TpoR cells after incubation with 10 or 20 μg/mL 4D7 or IgG for 4 or 8 hours, in presence of TPO. The last line indicates TPO withdrawal. B. Similar experiment using TPO-independent TF-1 TpoR CALR^del61 cells. C. Similar experiment using TPO-independent TF-1 TpoR CALR^del52 cells at 8 hours. D. Fraction of apoptotic sub-Go population of TF-1 TpoR CALR^del61 cells after 48 hours of 4D7 or IgG treatment (n=3). E. Western blot showing caspase 3 cleavage occurring within 24 hours of TPO withdrawal in TPO dependent TF-1 TpoR cells. An increase in cleaved caspase 3 is observed after 48 hours of treatment with 20 μg/mL 4D7 in TF-1 TpoR CALR^del61 and TF-1 TpoR CALR^del52 cells. F. Western blot of TpoR immunoprecipitation under non-reducing conditions showing associated CALR 50 kDa monomers and 100 kDa dimers (arrowheads) present only in TF-1 TpoR CALR^del61 disrupted by 8 hour treatment with 20 μg/mL 4D7 but not PBS or 20 μg/mL IgG. CALR monomers & dimers are detectable by polyclonal anti-wild type CALR or anti-mutant CALR monoclonal antibodies. Arrowheads, detected mutant CALR protein: asterisk, non-specific bands. G. Proposed model for the mechanism of action of 4D7 on mutant CALR. In the active form, mutant CALR dimers bound to TpoR form a constitutively activate receptor complex which is disrupted by 4D7 with blockade in STAT and ERK signalling. (Adapted from Masubuchi et al. (2020), Rivera et al (2021)). […]
(§2) A. Cell extracts blotted for phospho-STAT1, total STAT1, phospho-STAT3, total STAT3 and actin from TF-1 TpoR cells after incubation with 10 or 20 μg/mL 4D7 or IgG for 4 or 8 hours as indicated. […] Cells were harvested and fixed and stained with propidium iodide and their DNA contents were analysed. […] E. Western blot showing specific co-immunoprecipitation of mutant CALR^del61 cells with TpoR anti-FLAG antibody under reducing conditions detected by total and mutant specific CALR antibodies. Arrowheads represent detected CALR protein. […]

[2] = test system: phospho-STAT1,3,5 and phospho-ERK in TF-1 TpoR CALR^del61 cells; assay: Western blot of STAT/ERK signalling; details: 10 or 20 μg/mL; 4 and 8 hours
Procedure: as §1, §2

[3] = test system: phospho-STAT1,3,5 and phospho-ERK in TF-1 cells expressing TpoR alone; assay: Western blot of STAT/ERK signalling; details: 10 or 20 μg/mL for 4 or 8 hours, in presence of TPO
Procedure: as §1, §2

[4] = test system: primary CD34+ cells from patients with CALR mutant myelofibrosis; assay: TPO-independent megakaryocyte colony formation on collagen-based medium (MegaCult)
Excerpt: Patient samples were collected with informed consent from the South Australian Cancer Research Biobank (SACRB: Adelaide, Australia). Primary CD34+ stem/progenitor cells from peripheral blood samples from patients with JAK2^V617F or CALR mutant myelofibrosis were purified by flow cytometry using CD34-APC antibody, anti-human CD45RA Brilliant Violet 605, anti-CD90 FITC, anti-human CD123-PE, anti-human CD38 PE-Cy7, or with CD34-APC antibody, anti-human CD3 FITC, anti-human CD19-PE (clone H1B19) and anti-human CD14 PE-Cy7.
For megakaryocyte differentiation assays, CD34+ cells derived from cord blood or from patient peripheral blood mononuclear fractions were plated in Megacult (MegaCult™-C Collagen and Medium with Lipids) with added IL-3 and IL-6 (10 ng/ml) in the presence or absence of 50 ng/mL TPO. Cells were plated at an initial density of 1800 cells/well and cultured for 12 days at 37° C. and 5% CO2. […] Culture media was replenished every 3 days and cells were assessed for megakaryocyte differentiation on day 12 using anti-human CD41/61 PE-Cy7 (Clone A2A9/6) and CountBright beads (Thermo Fisher) to enumerate cell numbers. […] Cells were seeded at approximately 100 cells per well and were cultured in the presence of 20 μg/mL 4D7 or control IgG antibody and scored for colony and blast forming units at 12-14 days.

B1: 4D7: rat monoclonal IgG2a antibody against the mutant CALR neoepitope; VH SEQ ID NO: 5, VL SEQ ID NO: 7 (antibody, listed as Rattus rattus, V domains shown)
VH: QVQLQQSGAELAKPGSSVKISCKASGYTFTNYDMSWIKQRPGQALEWIGAINPGNGVTDYNEKFRGKATLTVDKSSSTAFMQLSSLTPEDTAVYHCAREYRDNYGYFDYWGQGVMVTVSS
VL: DIVLTQTPVSLSVTLGDQASISCRSSQSLEYSDGYTYLDWFLQKPGQSPQLLIYEVSSRFSGVPDRFIGRGSGTDFTLKISRVEPEDLGVYYCFQATHDPFTFGSGTKLEIK
constitutive factor-independent phospho-STAT1,3,5 and phospho-ERK [1]: blockade | constitutive factor-independent phospho-STAT1,3,5 and phospho-ERK [2]: blockade | inhibition of signalling [3]: no inhibition of signalling | decrease of primary TPO-independent megakaryocyte colonies (colony-forming unit-mega) ([4]; 20 μg/mL vs IgG, n=4 patient samples): 46% | size of megakaryocyte colonies ([4]; patient with a type 2 mutation): substantially smaller
